Laboratory results reported in US20100280095A1 (RIKEN, published 2010).

Molecular target: T1, endogenous Smad4 of 293T cells (UniProt Q13485 1-552)
T1 sequence (looked up): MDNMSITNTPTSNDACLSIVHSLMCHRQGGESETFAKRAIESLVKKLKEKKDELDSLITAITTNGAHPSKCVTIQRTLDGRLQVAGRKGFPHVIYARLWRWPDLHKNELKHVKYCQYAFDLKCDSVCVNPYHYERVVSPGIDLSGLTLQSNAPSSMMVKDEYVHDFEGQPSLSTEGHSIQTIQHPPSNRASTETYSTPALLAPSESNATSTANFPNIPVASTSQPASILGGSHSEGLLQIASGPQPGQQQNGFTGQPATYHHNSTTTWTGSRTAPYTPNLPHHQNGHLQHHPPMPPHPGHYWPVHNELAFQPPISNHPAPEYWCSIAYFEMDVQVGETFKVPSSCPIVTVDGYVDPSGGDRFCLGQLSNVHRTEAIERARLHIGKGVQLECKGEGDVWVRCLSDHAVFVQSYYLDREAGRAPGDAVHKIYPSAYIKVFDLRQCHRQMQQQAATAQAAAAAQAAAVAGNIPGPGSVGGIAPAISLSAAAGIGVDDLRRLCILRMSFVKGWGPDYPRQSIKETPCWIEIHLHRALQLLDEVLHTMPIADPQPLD
Experiment: co-immunoprecipitation: anti-c-Myc IP of 293T whole cell extract, immunoblot with anti-Smad4
Source text: (a) An interaction between c-Myc-tagged PDLIM2 and an endogenous Smad transcription factors; 293T cells were transfected with or without a c-Myc-tagged PDLIM2 expression plasmid (c-Myc PDLIM2) and treated to obtain whole cell extracts, which were immunoprecipitated (IP) with anti-c-Myc antibody, and immunoblotted (IB) with anti-Smad2, 3 or 4 antibody. (b) Luciferase activity in mouse embryonic fibroblasts; with or without a plasmid that encodes PDLIM2, the cells were transfected with a plasmid that encodes a TARE luciferase reporter (pTARE-Luc), after which the cells were stimulated with human TGFβ (10 ng/ml) for 6 hours and assayed.
All lysis buffers used for immunoblot analysis contained a proteinase inhibitor cocktail (Roche). Cytoplasmic and nuclear extracts were prepared as follows. Cells were lysed on ice for 10 min with hypotonic buffer (20 mM HEPES pH 8.0, 10 mM KCl, 1 mM MgCl₂, 0.1% Triton X-100, 20% glycerol). After centrifugation (5,000 rpm, 1 min), supernatants were collected and used as cytoplasmic fractions. The pellets were next lysed on ice for 20 min after brief vortexing with hypertonic buffer (20 mM HEPES pH 8.0, 1 mM EDTA, 20% glycerol, 0.1% Triton X-100, 400 mM NaCl). After centrifugation (15,000 rpm, 5 min), supernatants were collected and used as nuclear fractions. […]

B1: c-Myc-tagged PDLIM2 (murine Pdlim2 coding region in pCMV-Myc) (enzyme)
chain: MALTVDVAGPAPWGFRISGGRDFHTPIIVTKVTERGKAEAADLRPGDIIVAINGQSAENMLHAEAQSKIRQSASPLRLQLDRSQTASPGQTNGEGSLEVLATRFQGSLRTHRDSQSSQRSACFSPVSLSPRPCSPFSTPPPTSPVALSKEDMIGCSFQSLTHSPGLAAAHHLTYPGHPTSQQAGHSSPSDSAVRVLLHSPGRPSSPRFSSLDLEEDSEVFKMLQENRQGRAAPRQSSSFRLLQEALEAEERGGTPAFVPSSLSSQASLPTSRALATPPKLHTCEKCSVNISNQAVRIQEGRYRHPGCYTCADCGLNLKMRGHFWVGNELYCEKHARQRYSMPGTLNSRA
notes: Expressed in 293T cells and tested in whole cell extracts; also called c-Myc PDLIM2; PDZ and LIM domain protein-2; not shown: c-Myc tag from vector pCMV-Myc (Clontech)
binding result: no binding
